Data on eight molecules can be found in patent publication US20240067751A1 (KEYMED BIOSCIENCES, published 2024).

Test [1] addresses T1, Cynomolgus monkey MASP-2 D4-6 recombinant protein (Cynomolgus monkey, UniProt O00187 298-686 (human entry), limits assumed).
T1 construct: Made 'similarly' to the human protein (N-terminal his6 tag)
Briefly: SPR Biacore T200, antibody on Protein A chip, antigen as analyte, 1:1 fit. The procedure:
(§1) Surface plasmon resonance technology (SPR/Biacore T200) was used to capture 0.1 μg/ml of the antibody on the surface of the Protein A chip, with a capture time of 40 seconds and a flow rate of 10 μl/min. The chip was washed with buffer until the baseline leveled off, then gradient-diluted antigen was flowed through the chip at the flow rate of 30 μl/min, with a binding time of 120 sec and a dissociation time of 600 sec. The equilibrium dissociation constant (KD) was obtained by fitting in Langmuir 1:1 kinetics mode.

Test [2] concerns the target T2, rat MASP-2 D4-6 recombinant protein (rat, UniProt Q9JJS8 298-685).
T2 construct: Made 'similarly' to the human protein (N-terminal his6 tag)
The description is as above. The procedure:
as §1

Test [3] concerns the target T3, mouse MASP-2 D4-6 recombinant protein (mouse, UniProt Q91WP0 298-685).
T3 construct: Made 'similarly' to the human protein (N-terminal his6 tag)
The description is as above. The protocol: as §1

For test [4], the target named is T4, human MASP-2 D4-6 recombinant protein (human, UniProt O00187 298-686).
T4 construct: his6 tag fused at the N-terminus, made in HEK293E; also called enzymatic activity domains CCP1-CCP2-SP of human MASP-2
T4 sequence (O00187 other isoform, or with tags, fused parts or gaps limits assumed): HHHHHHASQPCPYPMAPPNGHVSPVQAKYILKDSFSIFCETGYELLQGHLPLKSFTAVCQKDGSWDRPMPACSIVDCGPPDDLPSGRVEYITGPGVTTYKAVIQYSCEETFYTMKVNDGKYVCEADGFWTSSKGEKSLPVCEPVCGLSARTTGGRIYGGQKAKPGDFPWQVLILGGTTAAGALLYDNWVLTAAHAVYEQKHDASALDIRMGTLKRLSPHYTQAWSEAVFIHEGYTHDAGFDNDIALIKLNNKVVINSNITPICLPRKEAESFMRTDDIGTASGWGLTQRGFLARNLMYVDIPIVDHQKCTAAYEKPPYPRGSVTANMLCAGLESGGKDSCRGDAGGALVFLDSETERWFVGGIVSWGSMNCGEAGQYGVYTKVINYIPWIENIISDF
The description is as above. The procedure: as §1

Test [5] deals with T1, Cynomolgus monkey MASP-2 D4-6 …. Briefly: ELISA, antigen coated, chimeric IgG titrated, anti-human Fc-HRP.
In test [6] the target is T2, rat MASP-2 D4-6 recombinant protein. The test is described as above.
In test [7] the target is T3, mouse MASP-2 D4-6 recombinant protein. The description is as above.
For test [8], the target named is T4, human MASP-2 D4-6 recombinant protein. The description is as above.
The target in test [9] is T1, Cynomolgus monkey MASP-2 D4-6 …. The test is described as follows: SPR Biacore T200, Flag-tagged Fab captured via anti-Flag antibody on Protein A chip, antigen as analyte, 1:1 fit. The procedure: (§2) The surface plasmon resonance (SPR/Biacore T200) technique was used to capture the anti-Flag antibody with Protein A chip. 10 μg/ml purified Fab antibody containing Flag tag was captured on the chip surface, with a capture time of 40 sec and a flow rate of […]. The chip was washed with buffer until the baseline leveled off, then gradient-diluted MASP-2 antigens were injected as the analytes successively to determine the affinity between Fab and different species antigens. The data were fitted by Biacore T200 Evaluation software 3.1 software in Langmuir 1:1 kinetics mode.

In test [10] the target is T2, rat MASP-2 D4-6 recombinant protein. The test is described as above. The protocol:
as §2

In test [11] the target is T3, mouse MASP-2 D4-6 recombinant protein. The test is described as above. The procedure:
as §2

Test [12] deals with T4, human MASP-2 D4-6 recombinant protein. Described as above. The procedure:
as §2

T3 sequence (Q91WP0 other isoform, or with tags, fused parts or gaps limits assumed): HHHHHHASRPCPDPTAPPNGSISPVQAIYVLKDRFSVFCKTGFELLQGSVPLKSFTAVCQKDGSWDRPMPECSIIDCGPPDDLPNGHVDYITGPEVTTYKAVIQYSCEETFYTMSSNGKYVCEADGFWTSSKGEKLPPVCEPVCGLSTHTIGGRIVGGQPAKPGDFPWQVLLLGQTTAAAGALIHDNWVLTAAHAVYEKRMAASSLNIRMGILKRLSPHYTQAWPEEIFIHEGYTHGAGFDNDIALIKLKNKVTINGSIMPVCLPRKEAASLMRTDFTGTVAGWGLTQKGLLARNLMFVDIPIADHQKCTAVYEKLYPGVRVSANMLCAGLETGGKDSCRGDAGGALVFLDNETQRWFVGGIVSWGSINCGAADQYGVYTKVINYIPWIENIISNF
T1 sequence (O00187 other isoform, or with tags, fused parts or gaps limits assumed): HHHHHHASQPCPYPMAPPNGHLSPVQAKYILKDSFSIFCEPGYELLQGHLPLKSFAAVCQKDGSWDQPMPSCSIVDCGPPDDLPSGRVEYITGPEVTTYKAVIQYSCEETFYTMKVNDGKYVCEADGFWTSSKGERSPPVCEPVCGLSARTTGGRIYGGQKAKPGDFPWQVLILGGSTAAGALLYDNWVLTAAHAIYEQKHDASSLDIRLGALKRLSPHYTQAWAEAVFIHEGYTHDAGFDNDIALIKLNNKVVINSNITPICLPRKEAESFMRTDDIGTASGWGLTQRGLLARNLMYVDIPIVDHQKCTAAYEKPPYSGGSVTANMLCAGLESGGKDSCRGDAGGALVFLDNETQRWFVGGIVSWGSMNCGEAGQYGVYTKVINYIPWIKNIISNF
T2 sequence (Q9JJS8 other isoform, or with tags, fused parts or gaps limits assumed): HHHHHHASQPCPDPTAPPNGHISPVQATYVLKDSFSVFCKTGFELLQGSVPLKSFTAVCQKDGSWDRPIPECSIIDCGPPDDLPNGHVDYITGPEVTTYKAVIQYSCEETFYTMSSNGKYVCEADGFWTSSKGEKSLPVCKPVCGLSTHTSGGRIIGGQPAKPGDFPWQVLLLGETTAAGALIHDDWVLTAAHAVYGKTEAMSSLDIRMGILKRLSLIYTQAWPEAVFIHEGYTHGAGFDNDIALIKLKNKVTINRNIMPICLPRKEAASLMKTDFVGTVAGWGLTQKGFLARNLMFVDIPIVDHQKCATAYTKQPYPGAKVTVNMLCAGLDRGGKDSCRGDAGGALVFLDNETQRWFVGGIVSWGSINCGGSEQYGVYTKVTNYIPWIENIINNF

B1: chimeric antibody 3B9 (antibody, V domains shown)
VH: DVQLQESGPGLVRPSQSLSLTCTVTGYSITSDYAWNWIRQFPGNKLEWMGYISYSGRTSYNPSLKSRLSITRDTSKNQFFLQLNSVSSADTATYYCAIISTAVDFDYWGQGTTLTVSS
VL: QTVLTQSPAIMSASLGERVTMTCTASSSVSSSYLLWYQQKPGSSPKLWIYSTSKLASGVPVRFSGSGSGTSYSLTISSMEADDAATYYCLQYNRSPLTFGAGTKLELK
For B1, the Kd in test [1] is 0.051 nM; in [2] it was 1040 nM; in test [3], 476 nM; in test [4], 0.067 nM. Besides, the EC50 in test [5] is 0.038 nM; in test [6], 1.62 nM; in test [7] it was 4.39 nM; in [8], 0.025 nM.

B2: Fab antibody 14F11 (Fab, V domains shown)
VH: QVQLQQSGPQLLRPGASVKISCKASGFSFTNHWIHWVKQRPGQGLEWIGMIDPSDSETGLNQKFRDKATLTVDKSSSTAYMHLNSPTSEDSAVYYCARLGIHDGYYIYAMDFWGQGTSVTVSS
VL: NIVMTQSPKSMSMSVGERVTLSCKASENVGTYVSWYQQKPEQSPKLLIYGASNRYTGVPDRFTGSGSATDFTLTISSVQAEDLADYHCGQSYSYPLTFGAGTKLELK
notes: Purified murine Fab with Flag tag from the phage display library; also called mAb 14F11
B2: the Kd in test [9] is 4.66 nM; in test [10], 0.546 nM; in test [11] it was 18 nM; in test [12], 0.172 nM. Moreover, the koff in [10] is 0.00182 s⁻¹; in test [11], 1.16 s⁻¹; in [12], 0.000163 s⁻¹. The figures for the kon in test [10], in [11] and in [12] were 3.34e+06 M⁻¹ s⁻¹, 6.44e+07 M⁻¹ s⁻¹ and 948000 M⁻¹ s⁻¹, respectively.

B3: Fab antibody 16B11 (Fab, V domains shown)
VH: QMQLQESGPGLVKPSQSLSLTCTVTGYSITSDYAWNWIRQFPGNKLEWMGYISYSGRTSYNPSLKSRISITRDTSKNQFFLQLNSVTTEDTATYYCARHYGDYWGQGTTLTVSS
VL: DIVMTQSQKLMSTSVGDRVSVTCKASQNVGTNVAWYQQKPGQSPKALIYSASYRNSGVPDRFTGSGSGTDFTLTISNVQSEDLAEYFCQQFNTNPLTFGSGTKLEIK
notes: Purified murine Fab with Flag tag from the phage display library; also called mAb 16B11
As to B3, the Kd in test [9] is 0.109 nM; in [10] it was 5.06 nM; in test [11], 1.76 nM; in test [12] it was 0.0407 nM. Besides, the off-rate (koff) in test [9] is 0.000181 s⁻¹; in test [10], 0.00931 s⁻¹; in test [11], 0.00811 s⁻¹; in [12], 8.75e-05 s⁻¹. The kon in [9] is 1.66e+06 M⁻¹ s⁻¹; in [10] it was 1.84e+06 M⁻¹ s⁻¹; in test [11], 4.61e+06 M⁻¹ s⁻¹; in [12], 2.15e+06 M⁻¹ s⁻¹.

B4: chimeric antibody 1B2 (antibody, V domains shown)
VH: DVQLQESGPGLVKPSQSLSLTCTVTGYSITSDYAWNWIRQFSGDKLEWMGYISYSGSTSYNPSLKSRISITRDTSKNQFFLHLSSVTTEDTATYFCARYWGDYWGHGTTLTVSS
VL: DSVMTQSQKFMSTSVGDRVSVTCKASHNVGTNVAWFQQKPGQSPKGLIYSASYRSSGVPDRFTGSGSGTDFTLTISNVQSEDLAEYFCLQYNSNPLTFGGGTKLEVK
For the molecule B4, the values for the Kd in test [1], in test [3] and in [4] were 0.078 nM, 632 nM and 0.002 nM, respectively. Further, the EC50 in test [5] came out at 0.014 nM; in test [6], 1.44 nM; in test [7], 0.947 nM; in test [8], 0.015 nM.

B5: chimeric antibody 28O14 (antibody, V domains shown)
VH: QVQLQQSGTELARPGASVRMSCKASGYTFRSHTMHWVKQRPGQGLEWIGYINPSTGYINYNQKFKDKATLTADKSSSTAYMQLSSLTSEDSAVYYCARSNYSYYYGMDYWGQGTSVTVSS
VL: DIVMTQSHKFMSTSVGDRVTITCKASQDVNTAVAWYQQKPGQSPKLLIYSASYRYTGVPDRFTGSGSGTDFTFTISSLQAEDLAVYYCQQHYNIPLTFGAGTKLELK
Turning to B5, the Kd in [1] was 0.01 nM; in test [2] it was 162 nM; in test [3] it was 767 nM; in test [4] it was 0.09 nM. In addition, the EC50 in test [5] was found to be 0.043 nM; in test [8], 0.033 nM.

B6: chimeric antibody 25L15 (antibody, V domains shown)
VH: KVKLVESGGDLVKPGGSLKISCAASGFTFSNYAMSWIRQTPDKRLEWVATVSSGGPYTYYPDSVKGRFTISRDNAENTLYLQMSSLRSDDTAIYYCARQIYSDYDVTYWGQGTLVTVSA
VL: QIVLSQSPAILSASPGETVTMTCRVSSSVSYMYWLQQKPGSSPKPWIYATSNLASGVPARFSGSGSGTSYSLTITRVEAEDAATYYCQQWSFRPWTFGGGTKLEIK
Regarding B6, the Kd was 0.92 nM in test [1], 167 nM in test [2], 499 nM in test [3] and 0.12 nM in test [4]. Besides, the EC50 came out at 0.008 nM in test [5], 0.021 nM in [6], 0.023 nM in test [7] and 0.012 nM in [8].

B7: chimeric antibody 16A17 (antibody, V domains shown)
VH: DVQLQESGPGLVKPSQSLSLTCTVTGYSITSDYAWKWIRQFPGNKLEWMGYISYSGSTSYHPSLKGRISITRDTSKNQFFLQLNSVTADDTATYYCAILGYYAMDYWGQGTSVTVSS
VL: DIVMTQSQKFMSTSVGDRVSITCKASQNVRVDVAWYQQKSGQSPRALIYLASNRHTGVPDRFTGSGSGTDFTLTITNVQSEDLADYFCPQHWSYPLTFGGGTKLEIK
With B7, the results for the Kd in test [1], in [3] and in [4] were 0.063 nM, 487 nM and 0.008 nM, respectively. The half-maximal effective concentration (EC50) turned out to be 0.014 nM in test [5], 4.3 nM in test [6], 1.97 nM in [7] and 0.014 nM in test [8].

B8: chimeric antibody 10L3 (antibody, V domains shown)
VH: DVQLQESGPGLVKPSQSLSLTCTVTGYSITSDYAWNWIRQFPGNKLEWMGYISYSGRTSYNPSLKSRISITRDTSKNQFFLQLNSVTTEDTATYYCAKLGGGHGMDYWGQGTSVTVSS
VL: IVMTQSQKFMSTSVGDRVSVTCKASQNVDTNVAWYQQKPGQSPKALIYSASYRYSGVPDRFTGSGSGTDFTLTISNVQSEDLAEYFCLQYNSYLTFGSGTKLELK
B8: the Kd in [1] stood at 1.29 nM; in [3], 214 nM; in test [4], 0.07 nM. In addition, the half-maximal effective concentration (EC50) worked out at 0.016 nM in test [5], 30.2 nM in test [6], 30.9 nM in [7] and 0.022 nM in [8].
